The target in experiment [1] is M1 protein on the surface of live GAS M1T1 5448 wild type (group A Streptococcus (endogenous in strain M1T1 5448)) (UniProt Q99XV0). In words: immunogold transmission electron microscopy; bacteria with 31.25 μg/mL histone H2A, 30 min at 37 °C, washed, fixed with 2% PFA; anti-histone H2A antibody and 15 nm immunogold secondary antibody; particles counted on >20 bacteria.

Experiment [2] addresses histone H2A (bovine (calf thymus)) (UniProt P0C0S9).

“histone H2A (from UniProt P0C0S9 1-130) (natural protein)”: in experiment [1], the gold particles per bacterium (gold-particles per bacterium) was over 30. Regarding “M1 protein fragment A+B (residues 42-194), recombinant NT fragment (from UniProt Q99XV0 42-194) (domain or fragment)”, in experiment [2], the histone MIC for the GAS Δemm1 mutant with exogenous 10 μM recombinant NT fragment (rNT) came out at 2 fold.

The values are drawn from article PMC5318940.
